Patent publication US20240383984A1 (Genentech, published 2024)

Legend:
[1] = molecular target: T1, human FcRH5 protein fragment (soluble) (human, UniProt Q96RD9 16-851); assay: BIACORE
T1 construct: whole entry named; also called soluble human FcRH5; Human FcRH5 (BIACORE analyte)
T1 sequence: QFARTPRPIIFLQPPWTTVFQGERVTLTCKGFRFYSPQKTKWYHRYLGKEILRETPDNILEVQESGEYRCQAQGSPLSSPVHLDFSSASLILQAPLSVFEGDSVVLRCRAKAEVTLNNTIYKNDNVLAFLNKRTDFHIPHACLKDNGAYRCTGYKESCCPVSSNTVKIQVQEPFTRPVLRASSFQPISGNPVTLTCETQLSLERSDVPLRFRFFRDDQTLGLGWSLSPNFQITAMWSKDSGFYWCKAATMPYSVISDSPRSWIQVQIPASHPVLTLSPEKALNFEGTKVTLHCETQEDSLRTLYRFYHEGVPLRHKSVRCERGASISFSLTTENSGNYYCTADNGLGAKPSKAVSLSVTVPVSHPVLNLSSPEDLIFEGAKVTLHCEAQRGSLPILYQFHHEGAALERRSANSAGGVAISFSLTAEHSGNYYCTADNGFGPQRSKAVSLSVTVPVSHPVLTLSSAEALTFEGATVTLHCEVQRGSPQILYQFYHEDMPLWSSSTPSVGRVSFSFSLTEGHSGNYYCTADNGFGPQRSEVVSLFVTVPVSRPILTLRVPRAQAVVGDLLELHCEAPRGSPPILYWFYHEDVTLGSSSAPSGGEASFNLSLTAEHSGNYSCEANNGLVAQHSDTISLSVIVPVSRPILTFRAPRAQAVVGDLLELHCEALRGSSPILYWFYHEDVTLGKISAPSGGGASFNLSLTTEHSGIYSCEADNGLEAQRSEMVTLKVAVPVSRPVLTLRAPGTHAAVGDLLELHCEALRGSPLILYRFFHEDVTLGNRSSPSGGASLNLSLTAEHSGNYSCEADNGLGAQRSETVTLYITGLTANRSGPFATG

[2] = molecular target: T2, cynomolgus FcRH5 protein fragment (soluble) (cynomolgus monkey); assay: BIACORE
T2 construct: whole entry named; also called Cyno FcRH5 (BIACORE analyte)
T2 chain: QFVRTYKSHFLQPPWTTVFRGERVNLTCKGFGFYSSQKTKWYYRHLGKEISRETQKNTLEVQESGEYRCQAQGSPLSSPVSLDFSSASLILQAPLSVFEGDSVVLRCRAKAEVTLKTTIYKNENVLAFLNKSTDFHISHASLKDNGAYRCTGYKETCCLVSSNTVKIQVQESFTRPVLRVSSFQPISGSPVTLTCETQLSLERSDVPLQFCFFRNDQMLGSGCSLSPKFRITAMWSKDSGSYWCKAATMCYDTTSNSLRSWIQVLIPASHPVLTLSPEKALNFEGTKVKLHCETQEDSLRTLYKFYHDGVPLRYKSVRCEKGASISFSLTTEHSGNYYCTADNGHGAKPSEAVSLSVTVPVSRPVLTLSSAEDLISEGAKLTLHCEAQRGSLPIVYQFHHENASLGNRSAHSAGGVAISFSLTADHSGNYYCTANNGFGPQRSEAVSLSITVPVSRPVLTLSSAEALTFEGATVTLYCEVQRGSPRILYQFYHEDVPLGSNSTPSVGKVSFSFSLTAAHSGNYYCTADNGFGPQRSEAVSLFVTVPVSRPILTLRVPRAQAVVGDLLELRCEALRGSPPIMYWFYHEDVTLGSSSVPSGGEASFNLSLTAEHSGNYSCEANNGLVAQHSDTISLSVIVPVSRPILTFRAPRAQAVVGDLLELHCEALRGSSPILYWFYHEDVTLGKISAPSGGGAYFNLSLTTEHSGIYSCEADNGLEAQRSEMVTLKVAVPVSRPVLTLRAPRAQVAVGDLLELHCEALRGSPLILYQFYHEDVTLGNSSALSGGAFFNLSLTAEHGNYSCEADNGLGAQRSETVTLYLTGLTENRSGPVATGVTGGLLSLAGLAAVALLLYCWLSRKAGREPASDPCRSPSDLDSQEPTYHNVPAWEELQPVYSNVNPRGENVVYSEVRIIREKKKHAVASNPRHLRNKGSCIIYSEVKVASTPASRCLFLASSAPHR

[3] = molecular target: T1, human FcRH5 protein fragment (soluble); assay: SPR (BIACORE), Human FcRH5, 1:1 binding model
[4] = molecular target: T3, human FcRH4 (full-length, on SVT2 cells) (human, UniProt Q96PJ5 20-515); assay: flow cytometry on SVT2-FcRH4 cells, PE-labelled secondary
T3 construct: whole, on cells; also called SVT2-FcRH4
T3 sequence (looked up): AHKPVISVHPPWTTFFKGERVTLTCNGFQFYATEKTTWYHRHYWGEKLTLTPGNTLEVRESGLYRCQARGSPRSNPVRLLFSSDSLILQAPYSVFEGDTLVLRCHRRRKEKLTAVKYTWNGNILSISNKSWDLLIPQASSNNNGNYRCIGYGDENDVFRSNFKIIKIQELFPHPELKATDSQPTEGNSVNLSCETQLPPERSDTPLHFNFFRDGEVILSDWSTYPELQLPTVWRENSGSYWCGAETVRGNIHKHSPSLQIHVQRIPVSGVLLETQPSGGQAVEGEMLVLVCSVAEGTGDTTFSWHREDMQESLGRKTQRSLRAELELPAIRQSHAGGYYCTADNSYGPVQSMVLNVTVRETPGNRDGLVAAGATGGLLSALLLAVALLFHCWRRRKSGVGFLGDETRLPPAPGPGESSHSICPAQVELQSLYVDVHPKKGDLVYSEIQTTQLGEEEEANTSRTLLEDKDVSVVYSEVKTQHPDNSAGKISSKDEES
Procedure: Human FcRH5, cyno FcRH5, human FcRH1, FcRH2, FcRH3, and FcRH4 transfected mouse SVT2 cells were used to test binding and cross-reactivity of FcRH5 TDBs. The method was carried out as follows. Cultured SVT2 cells were lifted using non-enzyme cell dissociation buffer (Sigma, #C5914). 1×10⁵ cells were suspended in 100 μL and incubated with FcRH5 TDBs at 3 μg/ml. […] Cells were washed twice with FACS buffer before flow cytometry analysis was carried out on a FACSCalibur.

[5] = molecular target: T2, cynomolgus FcRH5 protein fragment …; assay: SPR (BIACORE), TDB captured as ligand, Cyno FcRH5 as analyte, 25 °C, 1:1 binding model

- Kd [1]: 2.1 nM
- Kd [2]: 7.8 nM
- Kd [3]: 2.08 nM
- koff [3]: 0.000746 s⁻¹
- kon [3]: 359000 M⁻¹ s⁻¹
- binding result [4]: no binding
- Kd [5]: 6.76 nM
- koff [5]: 0.000847 s⁻¹
- kon [5]: 125000 M⁻¹ s⁻¹
B1: 1G7.v85/38E4.v1 TDB (bispecific antibody, V domains shown)
VH 1: EVQLVESGPGLVKPSETLSLTCTVSGFSLTRFGVHWVRQPPGKGLEWLGVIWRGGSTDYNAAFVSRLTISKDNSKNQVSLKLSSVTAADTAVYYCSNHYYGSSDYALDNWGQGTLVTVSS
VL 1: DIQMTQSPSSLSASVGDRVTITCKASQDVRNLVVWFQQKPGKAPKLLIYSGSYRYSGVPSRFSGSGSGTDFTLTISSLQPEDFATYYCQQHYSPPYTFGQGTKVEIK
VH 2: EVQLVQSGAEVKKPGASVKVSCKASGFTFTSYYIHWVRQAPGQGLEWIGWIYPENDNTKYNEKFKDRVTITADTSTSTAYLELSSLRSEDTAVYYCARDGYSRYYFDYWGQGTLVTVSS
VL 2: DIVMTQSPDSLAVSLGERATINCKSSQSLLNSRTRKNYLAWYQQKPGQSPKLLIYWTSTRKSGVPDRFSGSGSGTDFTLTISSLQAEDVAVYYCKQSFILRTFGQGTKVEIK
notes: knob-into-hole TDB; also called 1G7.v85 TDB; 1G7.v85 (TDB format)
